Our source for the number in the upper right quadrant (MHC-Multimer PE and APC double positive), no percent sign printed values is patent US20180088121A1.

Where no end group is shown, it is not given here.

This experiment has as its target TCRs of APC frameshift neopeptide specific T cell populations. Briefly: flow cytometry, double staining with PE and APC labelled neopeptide-MHC multimers of T cells after 2 weeks of in vitro expansion; first panel from the left. In general terms: A flow cytometer gives signals particle by particle.

As to LILYYILPRKV (peptide-MHC, part only; not given: HLA-A2 heavy chain, construct, human, part only, also: bound in HLA-A2 MHC multimer, PE and APC labelled) [A2/…], the number in the upper right quadrant (MHC-Multimer PE and APC double positive), no percent sign printed is 0.31.
